Test results from IntAct's records for PubMed 20723757.

B1: Monopolin complex subunit pcs1 (Schizosaccharomyces pombe (strain ATCC 38366 / 972)), O13684 (parent)
chain: MRKNNMQTSKDSELKEQAKGKSSKLIHKLPKQRTRISQGQMHSTQDFVNNEDQDAYSVRENENELHINNSGMSELNKKLQLPNVELSTLSHTQEQEFNELNKLIRKINELQEFYLLEDLAKPVTNAGADADDTIVKDLKKELENEKKANHSLKNELLKTREQIKNYSKINILIKELFGLEVADCIEDEDGYRFNCKNTGRRGTLEYQLLLDDQNFTFTPRLNVQTDEELMKHLPDYLLEEIIFTKEQGKLFSARLMKALQD
partner: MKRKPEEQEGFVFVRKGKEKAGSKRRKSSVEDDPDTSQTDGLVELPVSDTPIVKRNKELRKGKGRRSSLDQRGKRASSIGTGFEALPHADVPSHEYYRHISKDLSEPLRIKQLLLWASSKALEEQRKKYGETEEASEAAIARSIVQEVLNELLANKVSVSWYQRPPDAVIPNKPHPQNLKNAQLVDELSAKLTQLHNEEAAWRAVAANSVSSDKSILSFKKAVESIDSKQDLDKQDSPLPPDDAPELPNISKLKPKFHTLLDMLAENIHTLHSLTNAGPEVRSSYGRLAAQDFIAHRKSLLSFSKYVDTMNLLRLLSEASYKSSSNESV
B2: Monopolin complex subunit CSM1 (Saccharomyces cerevisiae), P25651 (parent)
chain: MDPLTVYKNSVKQQIDSADLLVANLVNENFVLSEKLDTKATEIKQLQKQIDSLNAQVKELKTQTSQQAENSEVIKDLYEYLCNVRVHKSYEDDSGLWFDISQGTHSGGSSDDYSIMDYKLGFVKGQAQVTEVIYAPVLKQRSTEELYSLQSKLPEYLFETLSFPLSSLNQFYNKIAKSLNKKREKKDETE
partner: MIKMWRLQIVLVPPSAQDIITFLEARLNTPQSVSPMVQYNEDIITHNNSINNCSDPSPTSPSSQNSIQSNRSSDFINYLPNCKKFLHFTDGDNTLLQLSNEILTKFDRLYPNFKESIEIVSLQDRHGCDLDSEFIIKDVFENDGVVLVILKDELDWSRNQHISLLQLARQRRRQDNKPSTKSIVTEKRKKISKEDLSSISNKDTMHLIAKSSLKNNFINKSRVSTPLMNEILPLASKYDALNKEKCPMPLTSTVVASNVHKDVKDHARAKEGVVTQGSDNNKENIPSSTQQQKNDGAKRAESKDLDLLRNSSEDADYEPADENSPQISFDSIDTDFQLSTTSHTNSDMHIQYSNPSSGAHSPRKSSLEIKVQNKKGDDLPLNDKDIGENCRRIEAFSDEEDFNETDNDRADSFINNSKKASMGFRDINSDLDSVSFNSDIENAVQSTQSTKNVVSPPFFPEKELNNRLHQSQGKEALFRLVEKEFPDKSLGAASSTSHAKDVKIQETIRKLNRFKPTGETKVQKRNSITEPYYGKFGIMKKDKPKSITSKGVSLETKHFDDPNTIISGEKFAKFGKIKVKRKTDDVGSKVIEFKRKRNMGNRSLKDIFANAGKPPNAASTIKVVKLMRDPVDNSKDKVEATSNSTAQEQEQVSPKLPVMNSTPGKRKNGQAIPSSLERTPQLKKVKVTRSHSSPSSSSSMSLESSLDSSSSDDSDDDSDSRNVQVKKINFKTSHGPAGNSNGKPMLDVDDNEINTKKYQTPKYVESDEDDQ
B3: Monopolin complex subunit CSM1 (Saccharomyces cerevisiae), P25651 (parent)
chain: B2 chain
partner: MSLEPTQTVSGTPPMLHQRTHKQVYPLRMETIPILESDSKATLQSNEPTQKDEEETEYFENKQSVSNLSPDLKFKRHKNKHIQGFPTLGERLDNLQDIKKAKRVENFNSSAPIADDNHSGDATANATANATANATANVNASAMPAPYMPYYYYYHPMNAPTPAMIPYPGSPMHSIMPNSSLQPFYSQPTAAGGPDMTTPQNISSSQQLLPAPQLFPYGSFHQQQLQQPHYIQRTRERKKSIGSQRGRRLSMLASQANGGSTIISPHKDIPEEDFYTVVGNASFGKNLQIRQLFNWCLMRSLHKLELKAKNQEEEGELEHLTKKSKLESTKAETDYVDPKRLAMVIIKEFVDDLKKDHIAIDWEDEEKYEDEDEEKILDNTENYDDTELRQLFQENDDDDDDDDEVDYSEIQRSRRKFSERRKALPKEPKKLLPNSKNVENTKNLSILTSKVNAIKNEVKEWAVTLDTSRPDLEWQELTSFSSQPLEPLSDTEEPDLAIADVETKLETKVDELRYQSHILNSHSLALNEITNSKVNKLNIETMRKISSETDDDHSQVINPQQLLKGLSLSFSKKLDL
B4: Monopolin complex subunit pcs1 (Schizosaccharomyces pombe (strain ATCC 38366 / 972)), O13684 (parent)
chain: B1 chain
partner: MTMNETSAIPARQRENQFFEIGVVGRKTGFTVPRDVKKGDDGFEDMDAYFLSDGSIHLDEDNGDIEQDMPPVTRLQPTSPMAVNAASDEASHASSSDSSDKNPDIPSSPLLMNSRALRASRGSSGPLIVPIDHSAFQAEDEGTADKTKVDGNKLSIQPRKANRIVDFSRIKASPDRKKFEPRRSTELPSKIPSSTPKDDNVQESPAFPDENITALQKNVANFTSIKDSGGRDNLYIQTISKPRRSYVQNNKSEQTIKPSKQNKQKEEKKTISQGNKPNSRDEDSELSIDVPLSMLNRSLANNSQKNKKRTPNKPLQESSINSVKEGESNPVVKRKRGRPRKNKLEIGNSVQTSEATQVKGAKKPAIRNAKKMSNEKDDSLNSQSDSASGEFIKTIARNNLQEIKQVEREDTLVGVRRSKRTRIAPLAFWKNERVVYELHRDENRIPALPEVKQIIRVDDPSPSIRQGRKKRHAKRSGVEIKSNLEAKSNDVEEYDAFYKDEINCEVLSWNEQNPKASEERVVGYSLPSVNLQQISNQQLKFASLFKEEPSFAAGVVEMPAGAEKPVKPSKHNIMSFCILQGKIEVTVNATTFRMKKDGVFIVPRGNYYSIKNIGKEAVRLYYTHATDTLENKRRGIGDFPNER
B5: Monopolin complex subunit CSM1 (Saccharomyces cerevisiae), P25651 (parent)
chain: B2 chain

Variants of: B1
Details: with mis13_schpo mis13, Q9UUB5

effect of a mutation on the interaction | Variant
decreasing interaction | I241A
decreasing interaction | I241K
decreasing interaction | I241D
decreasing interaction | Y236K
decreasing interaction | Y236E
decreasing interaction | Y236A

Variants of: B2
Details: with tof2_yeast TOF2, Q02208

effect of a mutation on the interaction | Variant
decreasing interaction | K174E
decreasing interaction | L161K
decreasing interaction | L161D
decreasing interaction | Y156A
decreasing interaction | Y156E

Variants of: B3
Details: with dsn1_yeast DSN1, P40568

effect of a mutation on the interaction | Variant
decreasing interaction | L161K
decreasing interaction | L161D
decreasing interaction | Y156E

Variants of: B4
Details: with cenpc_schpo cnp3, Q9USR9

effect of a mutation on the interaction | Variant
decreasing interaction | Y236A
decreasing interaction | I241A

Variants of: B5
Details: with cenpc_yeast MIF2, P35201
Chain of cenpc_yeast MIF2, P35201 (P35201 whole entry): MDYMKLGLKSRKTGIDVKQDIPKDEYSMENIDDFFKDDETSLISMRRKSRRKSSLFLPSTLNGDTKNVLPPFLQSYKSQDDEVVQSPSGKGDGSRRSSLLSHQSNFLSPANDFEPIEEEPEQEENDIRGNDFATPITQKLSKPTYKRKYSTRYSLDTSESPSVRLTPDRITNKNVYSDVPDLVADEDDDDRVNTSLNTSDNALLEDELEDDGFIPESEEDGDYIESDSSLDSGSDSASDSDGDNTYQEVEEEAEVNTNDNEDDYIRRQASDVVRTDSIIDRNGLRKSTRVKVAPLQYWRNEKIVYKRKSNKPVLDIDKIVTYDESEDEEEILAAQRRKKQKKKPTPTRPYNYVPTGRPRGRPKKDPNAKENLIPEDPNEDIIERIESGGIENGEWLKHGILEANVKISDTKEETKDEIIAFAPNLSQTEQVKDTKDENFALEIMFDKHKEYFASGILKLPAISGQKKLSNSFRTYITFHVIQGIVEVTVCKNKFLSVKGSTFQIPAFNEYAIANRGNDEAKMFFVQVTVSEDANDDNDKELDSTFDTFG

effect of a mutation on the interaction | Variant
decreasing interaction | Y156E
decreasing interaction | L161D
decreasing interaction | L161K
